{"source": "paper PMC5467742", "about": "(Cell, 2017)", "binders": {"B1": {"name": "OmpF (natural protein, E. coli (endogenous in Rosetta 2 (DE3)), UniProt P02931 23-362, looked up)", "chain": "AEIYNKDGNKVDLYGKAVGLHYFSKGNGENSYGGNGDMTYARLGFKGETQINSDLTGYGQWEYNFQGNNSEGADAQTGNKTRLAFAGLKYADVGSFDYGRNYGVVYDALGYTDMLPEFGGDTAYSDDFFVGRVGGVATYRNSNFFGLVDGLNFAVQYLGKNERDTARRSNGDGVGGSISYEYEGFGIVGAYGAADRTNLQEAQPLGNGKKAEQWATGLKYDANNIYLAANYGETRNATPITNKFTNTSGFANKTQDVLLVAQYQFDFGLRPSIAYTKSKAKDVEGIGDVDLVNYFEVGATYYFNKNMSTYVDYIINQIDSDNKLGVGSDDTVAVGIVYQF"}, "B2": {"name": "PqiB periplasmic domain (residues 39-546) (domain or fragment, E. coli, UniProt P43671 39-546, looked up)", "chain": "SHQGPEVTLITANAEGIEGGKTTIKSRSVDVGVVESATLADDLTHVEIKARLNSGMEKLLHKDTVFWVVKPQIGREGISGLGTLLSGVYIELQPGAKGSKMDKYDLLDSPPLAPPDAKGIRVILDSKKAGQLSPGDPVLFRGYRVGSVETSTFDTQKRNISYQLFINAPYDRLVTNNVRFWKDSGIAVDLTSAGMRVEMGSLTTLLSGGVSFDVPEGLDLGQPVAPKTAFVLYDDQKSIQDSLYTDHIDYLMFFKDSVRGLQPGAPVEFRGIRLGTVSKVPFFAPNMRQTFNDDYRIPVLIRIEPERLKMQLGENADVVEHLGELLKRGLRGSLKTGNLVTGALYVDLDFYPNTPAITGIREFNGYQIIPTVSGGLAQIQQRLMEALDKINKLPLNPMIEQATSTLSESQRTMKNLQTTLDSMNKILASQSMQQLPTDMQSTLRELNRSMQGFQPGSAAYNKMVADMQRLDQVLRELQPVLKTLNEKSNALVFEAKDKKDPEPKRAKQ"}, "B3": {"name": "YebT, full length, C-terminal 6xHis tag (natural protein, E. coli, UniProt P76272 1-877, looked up)", "chain": "MSQETPASTTEAQIKNKRRISPFWLLPFIALMIASWLIWDSYQDRGNTVTIDFMSADGIVPGRTPVRYQGVEVGTVQDISLSDDLRKIEVKVSIKSDMKDALREETQFWLVTPKASLAGVSGLDALVGGNYIGMMPGKGKEQDHFVALDTQPKYRLDNGDLMIHLQAPDLGSLNSGSLVYFRKIPVGKVYDYAINPNKQGVVIDVLIERRFTDLVKKGSRFWNVSGVDANVSISGAKVKLESLAALVNGAIAFDSPEESKPAEAEDTFGLYEDLAHSQRGVIIKLELPSGAGLTADSTPLMYQGLEVGQLTKLDLNPGGKVTGEMTVDPSVVTLLRENTRIELRNPKLSLSDANLSALLTGKTFELVPGDGEPRKEFVVVPGEKALLHEPDVLTLTLTAPESYGIDAGQPLILHGVQVGQVIDRKLTSKGVTFTVAIEPQHRELVKGDSKFVVNSRVDVKVGLDGVEFLGASASEWINGGIRILPGDKGEMKASYPLYANLEKALENSLSDLPTTTVSLSAETLPDVQAGSVVLYRKFEVGEVITVRPRANAFDIDLHIKPEYRNLLTSNSVFWAEGGAKVQLNGSGLTVQASPLSRALKGAISFDNLSGASASQRKGDKRILYASETAARAVGGQITLHAFDAGKLAVGMPIRYLGIDIGQIQTLDLITARNEVQAKAVLYPEYVQTFARGGTRFSVVTPQISAAGVEHLDTILQPYINVEPGRGNPRRDFELQEATITDSRYLDGLSIIVEAPEAGSLGIGTPVLFRGLEVGTVTGMTLGTLSDRVMIAMRISKRYQHLVRNNSVFWLASGYSLDFGLTGGVVKTGTFNQFIRGGIAFATPPGTPLAPKAQEGKHFLLQESEPKEWREWGTALPK"}, "B4": {"name": "MlaD core MCE domain (residues 32-140) (domain or fragment, E. coli, UniProt P64604 32-140, looked up)", "chain": "TSIRTEPTYTLYATFDNIGGLKARSPVSIGGVVVGRVADITLDPKTYLPRVTLEIEQRYNHIPDTSSLSIRTSGLLGEQYLALNVGFEDPELGTAILKDGDTIQDTKSA"}, "B5": {"name": "His-tagged MlaD, co-expressed from the mlaFEDCB operon (natural protein, E. coli, UniProt P64604 1-183, looked up)", "chain": "MQTKKNEIWVGIFLLAALLAALFVCLKAANVTSIRTEPTYTLYATFDNIGGLKARSPVSIGGVVVGRVADITLDPKTYLPRVTLEIEQRYNHIPDTSSLSIRTSGLLGEQYLALNVGFEDPELGTAILKDGDTIQDTKSAMVLEDLIGQFLYGSKGDDNKNSGDAPAAAPGNNETTEPVGTTK"}}, "key": {"[1]": {"target": "T1, MlaA with C-terminal 6xHis tag (E. coli, UniProt P76506 18-251)", "T1 sequence (looked up)": "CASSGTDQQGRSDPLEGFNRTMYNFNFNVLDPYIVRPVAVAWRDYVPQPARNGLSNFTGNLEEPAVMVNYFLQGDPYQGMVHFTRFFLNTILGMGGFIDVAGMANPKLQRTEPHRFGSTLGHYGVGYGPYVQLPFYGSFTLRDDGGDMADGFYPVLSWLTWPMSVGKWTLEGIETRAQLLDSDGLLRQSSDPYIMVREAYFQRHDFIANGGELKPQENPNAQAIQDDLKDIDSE", "test": "affinity purification with mass spectrometry"}, "cryo-EM structure": {"target": "the molecule itself", "test": "cryo-EM structure"}, "negative-stain EM": {"target": "the molecule itself", "test": "negative-stain EM"}, "crystal structure": {"target": "the molecule itself", "test": "crystal structure"}, "MlaE": {"target": "T2, MlaE (E. coli, UniProt P64606 1-260)", "T2 sequence (looked up)": "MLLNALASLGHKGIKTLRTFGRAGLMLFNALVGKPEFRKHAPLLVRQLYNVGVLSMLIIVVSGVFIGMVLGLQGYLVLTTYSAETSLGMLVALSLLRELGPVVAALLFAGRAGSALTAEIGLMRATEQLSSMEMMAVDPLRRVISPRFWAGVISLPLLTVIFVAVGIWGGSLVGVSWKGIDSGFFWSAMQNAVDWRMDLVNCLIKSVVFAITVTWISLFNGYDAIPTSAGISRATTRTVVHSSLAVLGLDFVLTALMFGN", "test": "affinity purification with mass spectrometry"}}, "note": "Several values for one entry are separate records, joined by “and”; a condition that tells them apart may be missing. Equal entries are not always repeated."}
{"binder": "B1", "values": [{"measurement": "stoichiometry N", "setting": "[1]", "value": "~1"}]}
{"binder": "B2", "values": [{"measurement": "stoichiometry N", "setting": "cryo-EM structure", "value": 6}]}
{"binder": "B3", "values": [{"measurement": "stoichiometry N", "setting": "negative-stain EM", "value": 6}]}
{"binder": "B4", "values": [{"measurement": "stoichiometry N", "setting": "crystal structure", "value": "7 and 14"}]}
{"binder": "B5", "values": [{"measurement": "binding result", "setting": "MlaE", "value": "binds"}]}
